According to the supplement of paper PMC6757056:
± gives the standard deviation of the averaged measurements.

B1: library; a variant is named by its letters at N, in order (parent)
chain: GCUGUCACCGGAAUACCAGCAUCGUCUUGAUGCCCUUGGAAGUCCGGUCUGAUGAGUCCNNNNNGGACGAAACAGC

Legend:
theophylline [1] = variants of: B1; assay: FACS-Seq fitted mean relative fluorescence mCherry/BFP without ligand (log10 relative fluorescence); higher = higher reporter protein expression; details: HEK293T, ligand present: no
Outline: (§1)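 HEK293T libraries were made by lentiviral transduction with a ribozyme-switch mCherry reporter and an EF1α-BFP marker, enriched, and incubated with or without ligand for 48 h. Cells were sorted into 6 mCherry/BFP bins, and each bin's genomic DNA was PCR-amplified, barcoded and run on MiSeq. Fluorescence was derived by normal fitting of the bin counts. The fitted log10(mCherry/BFP) mean was scaled to five spiked-in control ribozymes.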

theophylline [2] = variants of: B1; assay: normalized RNA/DNA level with ligand (relative to sTRSVctl = 100) (log10 (% of sTRSVctl)); higher = less ribozyme self-cleavage, higher mRNA level; details: ligand concentration (+) RNA-Seq: 5 mM, HEK293T, reporter: mCherry (pCS4076), ligand present: yes
Outline: (§2)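 Total RNA, extracted with EDTA 72 h after HEK293T cells were transfected with 4 µg per 6-well well of reporter-linked ribozyme switch library plasmids, was reverse-transcribed, amplified, barcoded and sequenced. Ligand, if used, was added 1 h before transfection. RNA level was derived from RNA reads divided by DNA reads and normalized to a spiked-in non-cleaving sequence or to the top sequences. This was multiplied by 100 and log10-transformed, with the top set of 25 sequences and a ≥100 DNA read minimum.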

theophylline [3] = variants of: B1; assay: normalized RNA/DNA level without ligand (relative to sTRSVctl = 100) (log10 (% of sTRSVctl)); higher = less ribozyme self-cleavage, higher mRNA level; details: HEK293T, reporter: mCherry (pCS4076), ligand present: no
Outline: as §2

theophylline [4] = variants of: B1; assay: FACS-Seq fitted mean relative fluorescence mCherry/BFP with ligand (log10 relative fluorescence); ligand concentration (+) FACS-Seq: 1 mM; higher = higher reporter protein expression; details: HEK293T, ligand present: yes
Outline: as §1

AUACG
FACS-Seq fitted mean (log10) (theophylline [1]): 0.526 ± 0.063 | normalized RNA/DNA level with ligand (log10) (theophylline [2]): 2.0061 ± 0.0018 | normalized RNA/DNA level without ligand (log10) (theophylline [3]): 1.831 ± 0.0082 | FACS-Seq fitted mean (log10) (theophylline [4]): 0.507 ± 0.02

AUACA
FACS-Seq fitted mean (log10) (theophylline [1]): 0.687 ± 0.07 | normalized RNA/DNA level with ligand (log10) (theophylline [2]): 1.98 ± 0.021 | normalized RNA/DNA level without ligand (log10) (theophylline [3]): 1.85 ± 0.12 | FACS-Seq fitted mean (log10) (theophylline [4]): 0.796 ± 0.012

UGUCU
FACS-Seq fitted mean (log10) (theophylline [1]): 0.747 ± 0.19 | normalized RNA/DNA level with ligand (log10) (theophylline [2]): 2.02 ± 0.035 | normalized RNA/DNA level without ligand (log10) (theophylline [3]): 1.988 ± 0.0094 | FACS-Seq fitted mean (log10) (theophylline [4]): 0.783 ± 0.043

GUACU
FACS-Seq fitted mean (log10) (theophylline [1]): 0.8686 ± 0.0017 | normalized RNA/DNA level with ligand (log10) (theophylline [2]): 2 ± 0.044 | normalized RNA/DNA level without ligand (log10) (theophylline [3]): 1.93 ± 0.08 | FACS-Seq fitted mean (log10) (theophylline [4]): 0.97 ± 0.03

AGUUC
FACS-Seq fitted mean (log10) (theophylline [1]): 0.981 ± 0.011 | normalized RNA/DNA level with ligand (log10) (theophylline [2]): 2 ± 0.034 | normalized RNA/DNA level without ligand (log10) (theophylline [3]): 1.89 ± 0.049 | FACS-Seq fitted mean (log10) (theophylline [4]): 1.02 ± 0.049

AGUUA
FACS-Seq fitted mean (log10) (theophylline [1]): 0.892 ± 0.082 | normalized RNA/DNA level with ligand (log10) (theophylline [2]): 1.87 ± 0.14 | normalized RNA/DNA level without ligand (log10) (theophylline [3]): 1.68 ± 0.039 | FACS-Seq fitted mean (log10) (theophylline [4]): 1.035 ± 0.0042

CGUGA
FACS-Seq fitted mean (log10) (theophylline [1]): -0.0723 ± 0.18 | normalized RNA/DNA level with ligand (log10) (theophylline [2]): 1.97 ± 0.025 | normalized RNA/DNA level without ligand (log10) (theophylline [3]): 1.58 ± 0.054 | FACS-Seq fitted mean (log10) (theophylline [4]): 0.221 ± 0.11

UGUAC
FACS-Seq fitted mean (log10) (theophylline [1]): 0.923 ± 0.082 | normalized RNA/DNA level with ligand (log10) (theophylline [2]): 1.98 ± 0.024 | normalized RNA/DNA level without ligand (log10) (theophylline [3]): 1.95 ± 0.045 | FACS-Seq fitted mean (log10) (theophylline [4]): 0.851 ± 0.13

UUAGC
FACS-Seq fitted mean (log10) (theophylline [1]): 0.886 ± 0.052 | normalized RNA/DNA level with ligand (log10) (theophylline [2]): 1.97 ± 0.029 | normalized RNA/DNA level without ligand (log10) (theophylline [3]): 1.94 ± 0.042 | FACS-Seq fitted mean (log10) (theophylline [4]): 0.916 ± 0.035

CGUAA
FACS-Seq fitted mean (log10) (theophylline [1]): 0.083 ± 0.047 | normalized RNA/DNA level with ligand (log10) (theophylline [2]): 2.04 ± 0.029 | normalized RNA/DNA level without ligand (log10) (theophylline [3]): 1.303 ± 0.0043 | FACS-Seq fitted mean (log10) (theophylline [4]): 0.767 ± 0.036

CGUAU
FACS-Seq fitted mean (log10) (theophylline [1]): 0.177 ± 0.0091 | normalized RNA/DNA level with ligand (log10) (theophylline [2]): 2 ± 0.05 | normalized RNA/DNA level without ligand (log10) (theophylline [3]): 1.54 ± 0.11 | FACS-Seq fitted mean (log10) (theophylline [4]): 0.491 ± 0.0065

CGUAC
FACS-Seq fitted mean (log10) (theophylline [1]): 0.651 ± 0.027 | normalized RNA/DNA level with ligand (log10) (theophylline [2]): 1.92 ± 0.093 | normalized RNA/DNA level without ligand (log10) (theophylline [3]): 1.75 ± 0.062 | FACS-Seq fitted mean (log10) (theophylline [4]): 0.792 ± 0.044

CUCCA
FACS-Seq fitted mean (log10) (theophylline [1]): 1.01 ± 0.29 | normalized RNA/DNA level with ligand (log10) (theophylline [2]): 2.03 ± 0.048 | normalized RNA/DNA level without ligand (log10) (theophylline [3]): 1.87 ± 0.038 | FACS-Seq fitted mean (log10) (theophylline [4]): 0.946 ± 0.15

CUCCC
FACS-Seq fitted mean (log10) (theophylline [1]): 0.836 ± 0.04 | normalized RNA/DNA level with ligand (log10) (theophylline [2]): 2.05 ± 0.12 | normalized RNA/DNA level without ligand (log10) (theophylline [3]): 2 ± 0.14 | FACS-Seq fitted mean (log10) (theophylline [4]): 0.811 ± 0.012

CUAGA
FACS-Seq fitted mean (log10) (theophylline [1]): 0.973 ± 0.064 | normalized RNA/DNA level with ligand (log10) (theophylline [2]): 1.96 ± 0.084 | normalized RNA/DNA level without ligand (log10) (theophylline [3]): 1.83 ± 0.04 | FACS-Seq fitted mean (log10) (theophylline [4]): 0.9812 ± 0.0091

UUAUU
FACS-Seq fitted mean (log10) (theophylline [1]): 0.914 ± 0.092 | normalized RNA/DNA level with ligand (log10) (theophylline [2]): 1.96 ± 0.12 | normalized RNA/DNA level without ligand (log10) (theophylline [3]): 1.95 ± 0.11 | FACS-Seq fitted mean (log10) (theophylline [4]): 0.942 ± 0.076

UUAUG
FACS-Seq fitted mean (log10) (theophylline [1]): 0.732 ± 0.015 | normalized RNA/DNA level with ligand (log10) (theophylline [2]): 2.06 ± 0.071 | normalized RNA/DNA level without ligand (log10) (theophylline [3]): 1.907 ± 0.0097 | FACS-Seq fitted mean (log10) (theophylline [4]): 0.821 ± 0.031

UUAUC
FACS-Seq fitted mean (log10) (theophylline [1]): 1.09 ± 0.15 | normalized RNA/DNA level with ligand (log10) (theophylline [2]): 2.04 ± 0.049 | normalized RNA/DNA level without ligand (log10) (theophylline [3]): 1.96 ± 0.16 | FACS-Seq fitted mean (log10) (theophylline [4]): 1.19 ± 0.12
